Columns and labels:
[1] = biological target: T1, recombinant CHO TEM-1 Fc fusion protein (UniProt Q9HCU0); test: ECL sandwich, competition: biotin-9G5 capture, sulfo-TAG-15F8 detection; MORAb-004 spike 6.25 µg/mL, TEM-1-Fc QC 50 ng/mL; recovery at 0 µg/mL MORAb-004: 104
T1 sequence (looked up): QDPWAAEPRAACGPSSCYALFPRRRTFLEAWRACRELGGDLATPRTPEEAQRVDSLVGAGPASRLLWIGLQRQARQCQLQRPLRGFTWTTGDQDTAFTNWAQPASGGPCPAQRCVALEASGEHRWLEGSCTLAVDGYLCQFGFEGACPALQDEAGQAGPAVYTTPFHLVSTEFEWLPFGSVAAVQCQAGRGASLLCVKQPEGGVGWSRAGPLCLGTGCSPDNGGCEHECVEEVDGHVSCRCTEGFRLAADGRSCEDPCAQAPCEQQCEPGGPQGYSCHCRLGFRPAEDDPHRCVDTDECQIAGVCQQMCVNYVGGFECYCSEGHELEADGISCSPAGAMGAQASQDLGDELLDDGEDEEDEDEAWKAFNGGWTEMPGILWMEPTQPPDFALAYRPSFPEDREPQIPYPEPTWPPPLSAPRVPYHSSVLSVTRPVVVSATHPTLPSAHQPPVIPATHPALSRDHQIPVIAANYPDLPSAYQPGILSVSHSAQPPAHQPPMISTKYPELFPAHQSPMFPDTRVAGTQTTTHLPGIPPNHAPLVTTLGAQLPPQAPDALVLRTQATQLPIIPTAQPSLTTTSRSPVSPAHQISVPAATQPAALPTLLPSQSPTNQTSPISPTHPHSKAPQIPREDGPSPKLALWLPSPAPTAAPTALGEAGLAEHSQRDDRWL

[2] = biological target: T1, recombinant CHO TEM-1 Fc fusion protein; test: ECL sandwich, competition: biotin-9G5 capture, sulfo-TAG-15F8 detection; MORAb-004 spike 25 µg/mL, TEM-1-Fc QC 0.08 ng/mL; recovery at 0 µg/mL MORAb-004: 114
[3] = biological target: T1, recombinant CHO TEM-1 Fc fusion protein; test: ECL sandwich, competition: biotin-9G5 capture, sulfo-TAG-15F8 detection; MORAb-004 spike 0.78125 µg/mL, TEM-1-Fc QC 2 ng/mL; recovery at 0 µg/mL MORAb-004: 106
[4] = biological target: T1, recombinant CHO TEM-1 Fc fusion protein; test: ECL sandwich, competition: biotin-9G5 capture, sulfo-TAG-15F8 detection; MORAb-004 spike 12.5 µg/mL, TEM-1-Fc QC 0.4 ng/mL; recovery at 0 µg/mL MORAb-004: 109
[5] = biological target: T1, recombinant CHO TEM-1 Fc fusion protein; test: ECL sandwich, competition: biotin-9G5 capture, sulfo-TAG-15F8 detection; MORAb-004 spike 50 µg/mL, TEM-1-Fc QC 50 ng/mL; recovery at 0 µg/mL MORAb-004: 104
[6] = biological target: T2, TEM-1 in a native state on aortic smooth muscle cells (AoSMC) (UniProt Q9HCU0); test: flow cytometry on AoSMC, primary antibody then FITC secondary; cells only 2.5, secondary only 3.9
T2 sequence (looked up): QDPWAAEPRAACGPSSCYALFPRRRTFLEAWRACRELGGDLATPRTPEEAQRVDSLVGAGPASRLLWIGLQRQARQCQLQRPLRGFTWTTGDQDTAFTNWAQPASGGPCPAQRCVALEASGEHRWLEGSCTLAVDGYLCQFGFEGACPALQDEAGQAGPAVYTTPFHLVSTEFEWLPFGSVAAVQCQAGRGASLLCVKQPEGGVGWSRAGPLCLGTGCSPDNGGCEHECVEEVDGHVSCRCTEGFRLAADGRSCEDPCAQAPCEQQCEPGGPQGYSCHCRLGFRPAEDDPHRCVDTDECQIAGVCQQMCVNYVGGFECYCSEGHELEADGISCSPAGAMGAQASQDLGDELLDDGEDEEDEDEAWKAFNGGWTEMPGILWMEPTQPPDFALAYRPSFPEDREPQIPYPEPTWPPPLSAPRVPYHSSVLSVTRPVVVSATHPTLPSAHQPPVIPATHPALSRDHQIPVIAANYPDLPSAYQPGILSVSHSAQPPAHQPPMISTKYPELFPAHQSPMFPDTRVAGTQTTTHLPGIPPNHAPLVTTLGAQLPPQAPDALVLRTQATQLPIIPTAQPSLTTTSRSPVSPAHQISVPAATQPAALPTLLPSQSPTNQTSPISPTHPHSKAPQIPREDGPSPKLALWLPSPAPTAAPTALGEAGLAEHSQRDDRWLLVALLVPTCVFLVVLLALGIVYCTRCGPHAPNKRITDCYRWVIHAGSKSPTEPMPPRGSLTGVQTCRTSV

% Recovery of TEM-1 QCs spiked with MORAb-004 [1]: 95.7%
% Recovery of TEM-1 QCs spiked with MORAb-004 [2]: 96%
% Recovery of TEM-1 QCs spiked with MORAb-004 [3]: 99.9%
% Recovery of TEM-1 QCs spiked with MORAb-004 [4]: 96.5%
% Recovery of TEM-1 QCs spiked with MORAb-004 [5]: 93.1%
Geometric mean of resulting FACS plot [6]: 103
B1: MORAb-004 (antibody, INN chains, looked up, V domains shown)
VH: QVQLQESGPGLVRPSQTLSLTCTASGYTFTDYVIHWVKQPPGRGLEWIGYINPYDDDTTYNQKFKGRVTMLVDTSSNTAYLRLSSVTAEDTAVYYCARRGNSYDGYFDYSMDYWGSGTPVTVSS
VL: DIQMTQSPSSLSASVGDRVTITCRASQNVGTAVAWLQQTPGKAPKLLIYSASNRYTGVPSRFSGSGSGTDYTFTISSLQPEDIATYYCQQYTNYPMYTFGQGTKVQIK

From US20150337051A1 (MORPHOTEK, published 2015)
